Assays:
Test in all cases: cell-based or functional assay
[1] = target: HIV-1 Env of pseudovirus 231966.c02 (clade D) (HIV-1)
[2] = target: HIV-1 Env of pseudovirus CNE20 (HIV-1)
[3] = target: HIV-1 Env of pseudovirus P0402_c2_11 (clade G) (HIV-1)
[4] = target: HIV-1 Env of pseudovirus 6811.v7.c18 (clade CD) (HIV-1)
[5] = target: HIV-1 Env of pseudovirus 6540.v4.c1 (clade AC) (HIV-1)
[6] = target: HIV-1 Env of pseudovirus 6480.v4.c25 (clade CD) (HIV-1)
[7] = target: HIV-1 Env of pseudovirus R1166.c01 (clade CRF01_AE) (HIV-1)
[8] = target: HIV-1 Env of pseudovirus 3103.v3.c10 (clade ACD) (HIV-1)
[9] = target: HIV-1 Env of pseudovirus 6041.v3.c23 (clade AC) (HIV-1)
[10] = target: HIV-1 Env of pseudovirus X2088_c9 (clade G) (HIV-1)
[11] = target: HIV-1 Env of pseudovirus 6952.v1.c20 (clade CD) (HIV-1)
[12] = target: HIV-1 Env of pseudovirus X1632_S2_B10 (clade G) (HIV-1)
[13] = target: HIV-1 Env of pseudovirus 0815.v3.c3 (clade ACD) (HIV-1)
[14] = target: HIV-1 Env of pseudovirus 3016.v5.c45 (clade D) (HIV-1)
[15] = target: HIV-1 Env of pseudovirus 9004SS_A3_4 (HIV-1)
[16] = target: HIV-1 Env of pseudovirus 3817.v2.c59 (clade CD) (HIV-1)
[17] = target: HIV-1 Env of pseudovirus HIV-001428-2.42 (HIV-1)
[18] = target: HIV-1 Env of pseudovirus P1981_C5_3 (clade G) (HIV-1)
[19] = target: HIV-1 Env of pseudovirus 3301.v1.c24 (clade AC) (HIV-1)
[20] = target: HIV-1 Env of pseudovirus T257-31 (HIV-1)
[21] = target: HIV-1 Env of pseudovirus 89-F1_2_25 (clade CD) (HIV-1)
[22] = target: HIV-1 Env of pseudovirus X2131_C1_B5 (clade G) (HIV-1)
[23] = target: HIV-1 Env of pseudovirus 231965.c01 (clade D) (HIV-1)
[24] = target: HIV-1 Env of pseudovirus 6545.v4.c1 (clade AC) (HIV-1)
[25] = target: HIV-1 Env of pseudovirus A07412M1.vrc12 (clade D) (HIV-1)
[26] = target: HIV-1 Env of pseudovirus 6240_08_TA5_4622 (HIV-1)

PG9 (antibody)
IC50, titer in TZM.bl cells [1]: 0.075 µg/mL
IC80, titer in TZM.bl cells [1]: 0.257 µg/mL
IC50, titer in TZM.bl cells [2]: 0.052 µg/mL
IC80, titer in TZM.bl cells [2]: 0.278 µg/mL
IC50, titer in TZM.bl cells [3]: 0.296 µg/mL
IC80, titer in TZM.bl cells [3]: 2.37 µg/mL
IC50, titer in TZM.bl cells [4]: > 50 µg/mL
IC80, titer in TZM.bl cells [4]: > 50 µg/mL
IC50, titer in TZM.bl cells [5]: 0.07 µg/mL
IC80, titer in TZM.bl cells [5]: 0.253 µg/mL
IC50, titer in TZM.bl cells [6]: > 50 µg/mL
IC80, titer in TZM.bl cells [6]: > 50 µg/mL
IC50, titer in TZM.bl cells [7]: 0.736 µg/mL
IC80, titer in TZM.bl cells [7]: 2.88 µg/mL
IC50, titer in TZM.bl cells [8]: 28 µg/mL
IC80, titer in TZM.bl cells [8]: > 50 µg/mL
IC50, titer in TZM.bl cells [9]: 0.244 µg/mL
IC80, titer in TZM.bl cells [9]: 3.64 µg/mL
IC50, titer in TZM.bl cells [10]: > 50 µg/mL
IC80, titer in TZM.bl cells [10]: > 50 µg/mL
IC50, titer in TZM.bl cells [11]: > 50 µg/mL
IC80, titer in TZM.bl cells [11]: > 50 µg/mL
IC50, titer in TZM.bl cells [12]: 0.107 µg/mL
IC80, titer in TZM.bl cells [12]: 0.934 µg/mL
IC50, titer in TZM.bl cells [13]: > 50 µg/mL
IC80, titer in TZM.bl cells [13]: > 50 µg/mL
IC50, titer in TZM.bl cells [14]: 2.46 µg/mL
IC80, titer in TZM.bl cells [14]: > 50 µg/mL
IC50, titer in TZM.bl cells [15]: 0.088 µg/mL
IC80, titer in TZM.bl cells [15]: 0.251 µg/mL
IC50, titer in TZM.bl cells [16]: 0.02 µg/mL
IC80, titer in TZM.bl cells [16]: 0.062 µg/mL
IC50, titer in TZM.bl cells [17]: 0.101 µg/mL
IC80, titer in TZM.bl cells [17]: 0.25 µg/mL
IC50, titer in TZM.bl cells [18]: 0.258 µg/mL
IC80, titer in TZM.bl cells [18]: 2.51 µg/mL
IC50, titer in TZM.bl cells [19]: 0.216 µg/mL
IC80, titer in TZM.bl cells [19]: 0.756 µg/mL
IC50, titer in TZM.bl cells [20]: 0.037 µg/mL
IC80, titer in TZM.bl cells [20]: 0.124 µg/mL
IC50, titer in TZM.bl cells [21]: 0.668 µg/mL
IC80, titer in TZM.bl cells [21]: 10.1 µg/mL
IC50, titer in TZM.bl cells [22]: 0.084 µg/mL
IC80, titer in TZM.bl cells [22]: 0.286 µg/mL
IC50, titer in TZM.bl cells [23]: 1.28 µg/mL
IC80, titer in TZM.bl cells [23]: 48 µg/mL
IC50, titer in TZM.bl cells [24]: 0.099 µg/mL
IC80, titer in TZM.bl cells [24]: 0.351 µg/mL
IC50, titer in TZM.bl cells [25]: 0.697 µg/mL
IC80, titer in TZM.bl cells [25]: 7.96 µg/mL
IC50, titer in TZM.bl cells [26]: 1.75 µg/mL
IC80, titer in TZM.bl cells [26]: 6.33 µg/mL

Reference: US20230002480A1
